From paper PMC1635294
Like-named read-outs stand apart in the source and are kept apart here.

Key:
SLBP (HBP), His-tagged [1] = target: T1, SLBP (HBP), His-tagged (human, UniProt Q14493 1-270); assay: competition
SLBP (HBP), His-tagged [2] = target: T1, SLBP (HBP), His-tagged; assay: competition; remark: listed apart in the source

Binder | binding result (SLBP (HBP), His-tagged [1]) | binding result (SLBP (HBP), His-tagged [2])
GGAGCUCAACAAAACCGGAAAGCCUUCCGGACCC (structured_RNA) [mutated stem-loop competitor (*)] | no binding | –
GGAGCUCAACAAAAGGCCCUUUUCAGGGCCACCC (structured_RNA) [wild-type stem-loop competitor] | – | binds
